The values that follow come from the RNAGym collection of RNA variant scans (doi:10.7554/elife.80360).

B1: Hammerhead Ribozyme (parent)
chain: ACCGGAUGUGCUUUCCGGUCUGAUGAGUCCGUGAGGACGAAACAG

Variants of B1 are the subject of this data set. Kind of data set: self-cleavage, relative activity (ratio to wild type); higher = more cleavage; co-transcriptional.
C20U A23C: the self-cleavage came out at 0.353.
As to C20U A23G, the self-cleavage was 0.356.
Then C20U A23U, with 0.279; and C20G G31U, with 0.356.
Then U21G G39C, with 0.314; and U21G G39U, with 0.37.
For the variant U21G G39A, the self-cleavage came to 0.354.
Then U21A A40C, with 0.315.
In the case of U21A A40U it was 0.338.
In the case of U21A A40G it was 0.271.
C20U G45C: the self-cleavage turned out to be 0.471.
In the case of C20U G45A it was 0.359; in that of C20U G45U, 0.387; in that of U21G G27C, 0.4.
In the case of U21G G27U it was 0.296.
In the case of U21G G27A it was 0.39; in that of U21C G35A, 0.741.
As to U21C G35C, the self-cleavage is 0.681.
Then U21C G35U, with 0.727; and G22A A23G, with 0.313; and G22A A23C, with 0.224.
With G22A A23U, the self-cleavage was 0.343.
Then U21G G35U, with 0.413; and U21G G35A, with 0.28.
With U21G G35C, the self-cleavage stood at 0.306.
Turning to U21C A44U, the self-cleavage worked out at 0.571.
Then U21C A44C, with 0.454.
In the case of U21C A44G it was 0.852.
As to C20U G35U, the self-cleavage was 0.347.
In the case of C20U G35C it was 0.407; in that of C20U G35A, 0.412; in that of U21C G31U, 0.83.
Then U21C G31C, with 0.678; and U21C G31A, with 0.974.
Then U21C A42C, with 0.28; and U21C A42U, with 0.318; and U21C A42G, with 0.323.
U21A G39A: the self-cleavage stood at 0.311.
Then U21A G39U, with 0.301; and U21A G39C, with 0.32.
In the case of U21G G25U it was 0.373.
In the case of U21G G25C it was 0.361; in that of U21G G25A, 0.349; in that of U21C G33U, 0.795.
As for U21C G33C, the self-cleavage stood at 0.756.
Take U21C G33A: the self-cleavage stood at 0.74.
In the case of U21G A37U, the self-cleavage was determined as 0.417.
In the case of U21G A37G it was 0.454; in that of U21G A37C, 0.427; in that of U21A C43G, 0.32.
As for U21A C43U, the self-cleavage worked out at 0.398.
Regarding U21A C43A, the self-cleavage amounted to 0.349.
In the case of U21A A44C, the self-cleavage is 0.415.
U21A A44U: the self-cleavage came out at 0.283.
Then U21A A44G, with 0.932; and U21G G22C, with 0.292.
Then U21G G22A, with 0.324.
Then U21G G22U, with 0.426; and C20U C38A, with 0.336; and C20U C38U, with 0.501.
C20U C38G: the self-cleavage came out at 0.298.
Then U21G C43G, with 0.324; and U21G C43U, with 0.317; and U21G C43A, with 0.346.
In the case of U21C U32G it was 0.947; in that of U21C U32A, 0.71.
In the case of U21C U32C it was 0.96; in that of U21C U28A, 0.573.
With U21C U28C, the self-cleavage stood at 0.977.
Then U21C U28G, with 0.703.
Consider U21G A23U, for which the self-cleavage is 0.448.
In the case of U21G A23C it was 0.36; in that of U21G A23G, 0.387.
In the case of U21G G31C it was 0.577; in that of U21G G31U, 0.743; in that of U21G G31A, 0.797.
In the case of C20U G33C it was 0.682.
In the case of C20U G33U, the self-cleavage was determined as 0.762.
Then C20U G33A, with 0.867; and U21G A44U, with 0.285.
In the case of U21G A44G it was 0.697; in that of U21G A44C, 0.285; in that of C20U A44G, 0.962.
Regarding C20U A44U, the self-cleavage amounted to 0.324.
Then C20U A44C, with 0.376; and G22A A26G, with 0.269; and G22A A26C, with 0.316.
In the case of G22A A26U it was 0.338.
In the case of U21A G25C it was 0.312; in that of U21A G25A, 0.334.
Turning to U21A G25U, the self-cleavage amounted to 0.333.
Then C20U U28G, with 0.596; and C20U U28A, with 0.621; and C20U U28C, with 0.661.
Then U21A A23G, with 0.419; and U21A A23C, with 0.474; and U21A A23U, with 0.34.
In the case of U21A G35A it was 0.52.
U21A G35C: the self-cleavage is 0.492.
Then U21A G35U, with 0.466.
In the case of C20U A40C it was 0.407; in that of C20U A40G, 0.41.
Then C20U A40U, with 0.246.
As for U21C A40C, the self-cleavage came to 0.393.
In the case of U21C A40U it was 0.274.
Then U21C A40G, with 0.371.
Then C20U G36C, with 0.327; and C20U G36U, with 0.359.
As for C20U G36A, the self-cleavage was determined as 0.36.
Then C20U C29U, with 0.395.
Then C20U C29G, with 0.378; and C20U C29A, with 0.296.
Then U21G A40C, with 0.312; and U21G A40U, with 0.331; and U21G A40G, with 0.345.
In the case of C20U A42U, the self-cleavage is 0.322.
In the case of C20U A42G it was 0.258.
In the case of C20U A42C it was 0.323.
Then C20G G33U, with 0.367; and C20G G33A, with 0.333; and C20G G33C, with 0.327.
Consider C20G G35A, for which the self-cleavage is 0.287.
In the case of C20G G35C it was 0.361; in that of C20G G35U, 0.353; in that of U21C C43G, 0.415.
Then U21C C43U, with 0.487; and U21C C43A, with 0.216.
Then C20U A41G, with 0.349; and C20U A41U, with 0.37.
Consider C20U A41C, for which the self-cleavage worked out at 0.373.
Then C20G G39C, with 0.321; and C20G G39A, with 0.34.
Then C20G G39U, with 0.316; and U21G, with 0.706; and U21A, with 0.687.
Then U21C, with 0.877.
Regarding C20U G39C, the self-cleavage stood at 0.362.
As for C20U G39U, the self-cleavage was 0.335.
Then C20U G39A, with 0.383.
In the case of G22A A37C it was 0.304; in that of C20U U21A, 0.358.
In the case of C20U U21C it was 0.531; in that of C20U U21G, 0.362.
C20G G45C: the self-cleavage was 0.302.
Turning to C20G G45U, the self-cleavage is 0.316.
Then C20G G45A, with 0.356; and U21C A34U, with 0.749; and U21C A34G, with 0.653.
In the case of U21C A34C it was 0.316; in that of U21C G39A, 0.304.
Then U21C G39U, with 0.34; and U21C G39C, with 0.378; and C20U C30G, with 0.398.
Take C20U C30U: the self-cleavage worked out at 0.594.
In the case of C20U C30A it was 0.464; in that of C20U U24C, 0.508.
As to C20U U24A, the self-cleavage came to 0.799.
Take C20U U24G: the self-cleavage turned out to be 0.714.
In the case of U21G C30G it was 0.373; in that of U21G C30U, 0.837; in that of U21G C30A, 0.419.
Then C20U A34G, with 0.407; and C20U A34U, with 0.356.
In the case of C20U A34C it was 0.369; in that of U21A A41G, 0.401; in that of U21A A41U, 0.325.
Consider U21A A41C, for which the self-cleavage was 0.437.
